The series deals with Escherichia coli TOP10. Nature of the series: shrunken log2 fold change of peptide-encoding DNA abundance (4.5 h post-induction vs induction); higher = less antimicrobial activity (less host growth inhibition). The following applies: time post-induction: 4.5 h; library: site-saturation at positions 5, 18, 19, 20.
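Also: peptides expressed intracellularly from a pBAD plasmid library in pooled LB shake-flask culture, induced with 0.3% L-arabinose, DNA abundance read by NGS, three biological replicates, DESeq2 with apeglm shrinkage.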

For the sequence RRIRYRPPRLPRPRPRPQMWPRP, the “shrunken log2 fold change” value was -0.213.

Take RRIRHRPPRLPRPRPRPYTDPRP: the “shrunken log2 fold change” value was -0.000921.

Regarding RRIRCRPPRLPRPRPRPWLMPRP, the “shrunken log2 fold change” value is -0.159.

On to RRIRMRPPRLPRPRPRPKQSPRP, for which the “shrunken log2 fold change” value is 0.757.

In the case of RRIRMRPPRLPRPRPRPFGHPRP, the “shrunken log2 fold change” value is -0.0287.

Turning to RRIRNRPPRLPRPRPRPMLMPRP, the “shrunken log2 fold change” value was -0.0217.

On to RRIRKRPPRLPRPRPRPAFAPRP, for which the “shrunken log2 fold change” value came out at 0.647.

RRIRQRPPRLPRPRPRPTDEPRP: the “shrunken log2 fold change” value is -0.131.

As to RRIRRRPPRLPRPRPRPFHMPRP, the “shrunken log2 fold change” value was -0.0949.

With RRIRQRPPRLPRPRPRPEHQPRP, the “shrunken log2 fold change” value was -0.0955.

Consider RRIRERPPRLPRPRPRPVLPPRP, for which the “shrunken log2 fold change” value is -0.0942.

As for RRIRLRPPRLPRPRPRPDHDPRP, the “shrunken log2 fold change” value is -0.0947.

As for RRIRTRPPRLPRPRPRPYSVPRP, the “shrunken log2 fold change” value was -0.027.

Consider RRIRHRPPRLPRPRPRPTMLPRP, for which the “shrunken log2 fold change” value was -0.468.

In the case of RRIRMRPPRLPRPRPRPHACPRP, the “shrunken log2 fold change” value was -0.0695.

Turning to RRIRNRPPRLPRPRPRPLNEPRP, the “shrunken log2 fold change” value is -0.233.

Take RRIRVRPPRLPRPRPRPQLVPRP: the “shrunken log2 fold change” value was -0.048.

With RRIRIRPPRLPRPRPRPTQWPRP, the “shrunken log2 fold change” value was -0.136.

In the case of RRIRYRPPRLPRPRPRPSWTPRP, the “shrunken log2 fold change” value is -1.11.

On to RRIRKRPPRLPRPRPRPAHIPRP, for which the “shrunken log2 fold change” value was -0.137.

As for RRIRARPPRLPRPRPRPHVGPRP, the “shrunken log2 fold change” value was determined as 0.34.

Turning to RRIRFRPPRLPRPRPRPMPSPRP, the “shrunken log2 fold change” value amounted to 0.0917.

Turning to RRIRSRPPRLPRPRPRPVSHPRP, the “shrunken log2 fold change” value is -0.188.

Turning to RRIRVRPPRLPRPRPRPCKRPRP, the “shrunken log2 fold change” value is -0.196.

Turning to RRIRMRPPRLPRPRPRPNIHPRP, the “shrunken log2 fold change” value was -0.144.

Consider RRIRCRPPRLPRPRPRPDGAPRP, for which the “shrunken log2 fold change” value stood at 0.129.

In the case of RRIRIRPPRLPRPRPRPFRDPRP, the “shrunken log2 fold change” value is -0.111.

For RRIRCRPPRLPRPRPRPKEFPRP, the “shrunken log2 fold change” value is 0.0238.

As to RRIRPRPPRLPRPRPRPPHPPRP, the “shrunken log2 fold change” value was 0.292.

Take RRIRNRPPRLPRPRPRPCGEPRP: the “shrunken log2 fold change” value was determined as 0.0369.

As for RRIRWRPPRLPRPRPRPFRFPRP, the “shrunken log2 fold change” value was -0.0501.

For the sequence RRIRVRPPRLPRPRPRPRSWPRP, the “shrunken log2 fold change” value turned out to be 0.325.

With RRIRVRPPRLPRPRPRPCFDPRP, the “shrunken log2 fold change” value was -0.121.

As to RRIRCRPPRLPRPRPRPYDRPRP, the “shrunken log2 fold change” value is -0.188.

On to RRIRVRPPRLPRPRPRPTSIPRP, for which the “shrunken log2 fold change” value is -0.201.

With RRIRMRPPRLPRPRPRPCSTPRP, the “shrunken log2 fold change” value worked out at 0.477.

In the case of RRIRPRPPRLPRPRPRPGRWPRP, the “shrunken log2 fold change” value was 0.551.

Take RRIRMRPPRLPRPRPRPICGPRP: the “shrunken log2 fold change” value stood at 0.237.

Consider RRIRERPPRLPRPRPRPMYAPRP, for which the “shrunken log2 fold change” value was -0.246.

For the sequence RRIRHRPPRLPRPRPRPHCAPRP, the “shrunken log2 fold change” value was -0.109.

As for RRIRFRPPRLPRPRPRPVHMPRP, the “shrunken log2 fold change” value is -0.0472.

In the case of RRIRLRPPRLPRPRPRPWIQPRP, the “shrunken log2 fold change” value is -0.355.

Regarding RRIRNRPPRLPRPRPRPLPDPRP, the “shrunken log2 fold change” value was -0.0552.

Turning to RRIRQRPPRLPRPRPRPCIYPRP, the “shrunken log2 fold change” value was -0.204.

For RRIRARPPRLPRPRPRPYVNPRP, the “shrunken log2 fold change” value is -0.235.

On to RRIRERPPRLPRPRPRPMYKPRP, for which the “shrunken log2 fold change” value is -0.0299.

Regarding RRIRCRPPRLPRPRPRPPQTPRP, the “shrunken log2 fold change” value was 0.665.

Take RRIRCRPPRLPRPRPRPFINPRP: the “shrunken log2 fold change” value was -1.1.

As to RRIRGRPPRLPRPRPRPQLWPRP, the “shrunken log2 fold change” value was 0.928.

As to RRIRGRPPRLPRPRPRPCLFPRP, the “shrunken log2 fold change” value was 0.346.

For the sequence RRIRMRPPRLPRPRPRPQDWPRP, the “shrunken log2 fold change” value turned out to be 0.00698.

Consider RRIRQRPPRLPRPRPRPLCPPRP, for which the “shrunken log2 fold change” value is -0.334.

In the case of RRIRKRPPRLPRPRPRPWGTPRP, the “shrunken log2 fold change” value is 0.341.

Regarding RRIRSRPPRLPRPRPRPESCPRP, the “shrunken log2 fold change” value worked out at 0.181.

For RRIRIRPPRLPRPRPRPPFRPRP, the “shrunken log2 fold change” value was -0.0473.

RRIRPRPPRLPRPRPRPLRTPRP: the “shrunken log2 fold change” value was 0.831.

Take RRIRHRPPRLPRPRPRPQCAPRP: the “shrunken log2 fold change” value turned out to be 0.191.

Regarding RRIRRRPPRLPRPRPRPYVAPRP, the “shrunken log2 fold change” value was -0.361.

Consider RRIRFRPPRLPRPRPRPPEMPRP, for which the “shrunken log2 fold change” value was 0.0471.

With RRIRYRPPRLPRPRPRPWSYPRP, the “shrunken log2 fold change” value was -0.23.

As to RRIRERPPRLPRPRPRPEVPPRP, the “shrunken log2 fold change” value is -0.00233.

Consider RRIRKRPPRLPRPRPRPTYPPRP, for which the “shrunken log2 fold change” value is -0.00526.

For the sequence RRIRWRPPRLPRPRPRPQPHPRP, the “shrunken log2 fold change” value was 0.134.

RRIRARPPRLPRPRPRPCCCPRP: the “shrunken log2 fold change” value came to 0.689.

RRIRMRPPRLPRPRPRPGSVPRP: the “shrunken log2 fold change” value worked out at 0.696.

Take RRIRERPPRLPRPRPRPIQEPRP: the “shrunken log2 fold change” value was -0.0167.

Regarding RRIRCRPPRLPRPRPRPREEPRP, the “shrunken log2 fold change” value was 1.43.

In the case of RRIRCRPPRLPRPRPRPTCWPRP, the “shrunken log2 fold change” value is 0.15.

As for RRIRERPPRLPRPRPRPRESPRP, the “shrunken log2 fold change” value was -0.329.

As to RRIRWRPPRLPRPRPRPHADPRP, the “shrunken log2 fold change” value is 0.708.

With RRIRIRPPRLPRPRPRPQAAPRP, the “shrunken log2 fold change” value was -0.115.

For the sequence RRIRQRPPRLPRPRPRPPYFPRP, the “shrunken log2 fold change” value was found to be 0.245.

On to RRIRQRPPRLPRPRPRPSYTPRP, for which the “shrunken log2 fold change” value was -1.34.

RRIRERPPRLPRPRPRPGPGPRP: the “shrunken log2 fold change” value is 0.268.

RRIRTRPPRLPRPRPRPWPIPRP: the “shrunken log2 fold change” value stood at 0.00716.

As to RRIRKRPPRLPRPRPRPMMIPRP, the “shrunken log2 fold change” value is -0.0134.

As for RRIRFRPPRLPRPRPRPEVQPRP, the “shrunken log2 fold change” value turned out to be 0.00737.

Turning to RRIRIRPPRLPRPRPRPGYSPRP, the “shrunken log2 fold change” value is -0.525.

Consider RRIRNRPPRLPRPRPRPQKNPRP, for which the “shrunken log2 fold change” value was -0.318.

RRIRYRPPRLPRPRPRPQSQPRP: the “shrunken log2 fold change” value was -0.133.

In the case of RRIRQRPPRLPRPRPRPWNKPRP, the “shrunken log2 fold change” value is -0.34.

With RRIRNRPPRLPRPRPRPRKCPRP, the “shrunken log2 fold change” value is -0.0149.

Take RRIRFRPPRLPRPRPRPMRGPRP: the “shrunken log2 fold change” value was 0.664.

RRIRFRPPRLPRPRPRPWATPRP: the “shrunken log2 fold change” value amounted to 0.0109.

For the sequence RRIRFRPPRLPRPRPRPIEQPRP, the “shrunken log2 fold change” value stood at 0.0187.

RRIRNRPPRLPRPRPRPSCFPRP: the “shrunken log2 fold change” value was -0.398.

With RRIRTRPPRLPRPRPRPRYCPRP, the “shrunken log2 fold change” value is -0.116.

On to RRIRWRPPRLPRPRPRPPIHPRP, for which the “shrunken log2 fold change” value is -0.448.

Regarding RRIRCRPPRLPRPRPRPQMIPRP, the “shrunken log2 fold change” value is -1.55.

For RRIRYRPPRLPRPRPRPKTTPRP, the “shrunken log2 fold change” value is -0.0197.

As to RRIRSRPPRLPRPRPRPCGPPRP, the “shrunken log2 fold change” value was 0.118.

Consider RRIRGRPPRLPRPRPRPMYAPRP, for which the “shrunken log2 fold change” value stood at 0.706.

In the case of RRIRPRPPRLPRPRPRPDTEPRP, the “shrunken log2 fold change” value is -0.48.

Take RRIRIRPPRLPRPRPRPAIVPRP: the “shrunken log2 fold change” value was -0.135.

Regarding RRIRSRPPRLPRPRPRPNKSPRP, the “shrunken log2 fold change” value was -0.266.

For RRIRFRPPRLPRPRPRPHTWPRP, the “shrunken log2 fold change” value was -0.415.

For the sequence RRIRCRPPRLPRPRPRPWLRPRP, the “shrunken log2 fold change” value was -0.0383.

For RRIRRRPPRLPRPRPRPKTWPRP, the “shrunken log2 fold change” value was -0.0361.

As for RRIRSRPPRLPRPRPRPRNRPRP, the “shrunken log2 fold change” value was -0.198.

In the case of RRIRQRPPRLPRPRPRPVQMPRP, the “shrunken log2 fold change” value was -0.163.

With RRIRPRPPRLPRPRPRPVDSPRP, the “shrunken log2 fold change” value was -0.177.

With RRIRSRPPRLPRPRPRPQPVPRP, the “shrunken log2 fold change” value came out at 0.0573.

In the case of RRIRKRPPRLPRPRPRPTNQPRP, the “shrunken log2 fold change” value amounted to 0.289.

On to RRIRIRPPRLPRPRPRPTRWPRP, for which the “shrunken log2 fold change” value worked out at 0.242.

With RRIRCRPPRLPRPRPRPSEHPRP, the “shrunken log2 fold change” value was -0.236.

Turning to RRIRDRPPRLPRPRPRPFEFPRP, the “shrunken log2 fold change” value was 0.0215.

As for RRIRSRPPRLPRPRPRPHEMPRP, the “shrunken log2 fold change” value is 0.0637.

Take RRIRARPPRLPRPRPRPKPMPRP: the “shrunken log2 fold change” value is 0.831.

In the case of RRIRLRPPRLPRPRPRPKGQPRP, the “shrunken log2 fold change” value was -0.11.

Take RRIRQRPPRLPRPRPRPYRLPRP: the “shrunken log2 fold change” value was -0.19.

In the case of RRIRSRPPRLPRPRPRPCLAPRP, the “shrunken log2 fold change” value was found to be 0.0253.

Turning to RRIRTRPPRLPRPRPRPLQRPRP, the “shrunken log2 fold change” value was -0.063.

As for RRIRVRPPRLPRPRPRPTLLPRP, the “shrunken log2 fold change” value is -0.196.

For the sequence RRIRSRPPRLPRPRPRPGMQPRP, the “shrunken log2 fold change” value is -0.394.

In the case of RRIRVRPPRLPRPRPRPTEYPRP, the “shrunken log2 fold change” value stood at 0.0465.

For the sequence RRIRQRPPRLPRPRPRPHYDPRP, the “shrunken log2 fold change” value was -0.295.

Turning to RRIRNRPPRLPRPRPRPWITPRP, the “shrunken log2 fold change” value was -0.0261.

For the sequence RRIRSRPPRLPRPRPRPMEFPRP, the “shrunken log2 fold change” value amounted to 0.00489.

Regarding RRIRDRPPRLPRPRPRPCWAPRP, the “shrunken log2 fold change” value is 0.125.

As to RRIRWRPPRLPRPRPRPIAVPRP, the “shrunken log2 fold change” value was 0.187.

In the case of RRIRARPPRLPRPRPRPCALPRP, the “shrunken log2 fold change” value amounted to 0.00197.

With RRIRERPPRLPRPRPRPLIMPRP, the “shrunken log2 fold change” value was -0.781.

Take RRIRWRPPRLPRPRPRPSMCPRP: the “shrunken log2 fold change” value was -0.16.

As for RRIRERPPRLPRPRPRPNKGPRP, the “shrunken log2 fold change” value is -0.164.

For RRIRRRPPRLPRPRPRPHSIPRP, the “shrunken log2 fold change” value was 0.052.

(Values after the supplement of paper PMC9112550, “Optimization of the antimicrobial peptide Bac7 by deep mutational scanning” (BMC Biology, 2022).)
